Patent US8445431

Tested on: T1, [KGHK-Cu]+ copper(II) complex of KGHK
T1 sequence: KGHK

## recombinant isoform of human Angiotensin Converting Enzyme (rhACE) corresponding to the ectodomain somatic ACE
  catalytic rate constant kobs for enzyme deactivation under oxidative conditions (ascorbate, dioxygen): kobs˜2.86×10^-2 min^-1 for enzyme deactivation
